Data on ten substances can be found in patent US9260500B2, “Peptide and use thereof” (Takeda Pharmaceutical Company Limited, priority 2009, dated 2016).

Starred links: 1 amine or outer side, 2 acyl side, 3 side chain; linkers in the order of their positions; H or OH if unused. Non-standard residues stand in square brackets, D forms with d. *: point of attachment. Ala(piperidin-4-yl) = O=C([C@H](CC1CCN([*:3])CC1)N[*:1])[*:2]; (5-carboxypentyl)carbamoyl = O=C(O)CCCCCNC(=O)*; (carboxymethyl)carbamoyl = O=C(O)CNC(=O)*; 2Nal = N[C@@H](Cc1ccc2ccccc2c1)C(=O)O; Imidazole4carbonyl = O=C(c1cnc[nH]1)*; Arg(Me) = CNC(=N)NCCC[C@H](N)C(=O)O; tBuAla = CC(C)(C)C[C@H](N)C(=O)O; 4Pal = N[C@@H](Cc1ccncc1)C(=O)O; Cha = N[C@@H](CC1CCCCC1)C(=O)O; Iva = CC[C@](C)(N)C(=O)O; Nle = CCCC[C@H](N)C(=O)O; Aib = CC(C)(N)C(=O)O

In experiment [1] the target is T1, human Y2 receptor (Homo sapiens, UniProt P49146).
T1 construct: expressed in transfected cells; membrane fraction
T1 sequence (P49146 1-381): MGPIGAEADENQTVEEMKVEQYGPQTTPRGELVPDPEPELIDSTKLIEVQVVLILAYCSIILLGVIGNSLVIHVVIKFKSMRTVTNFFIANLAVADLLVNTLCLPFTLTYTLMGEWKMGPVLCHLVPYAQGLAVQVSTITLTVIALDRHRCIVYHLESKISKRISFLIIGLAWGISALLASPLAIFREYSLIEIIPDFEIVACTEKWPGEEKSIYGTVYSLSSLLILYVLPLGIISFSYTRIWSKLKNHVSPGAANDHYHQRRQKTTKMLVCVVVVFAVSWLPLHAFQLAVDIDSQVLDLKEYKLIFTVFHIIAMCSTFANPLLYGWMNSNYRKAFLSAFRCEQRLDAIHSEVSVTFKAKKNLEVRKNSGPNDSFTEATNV
Briefly: Receptor Binding Assay (RBA) for Human Y2, [125I]-PYY displacement on hY2R/CHO membrane fraction. Particulars: IC50 of test compound/IC50 of PYY(3-36) (PYY(3-36) taken as 1). In short, it runs like this:
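hY2R stably expressed in CHO/dhfr− cells; membrane fraction prepared from cells disrupted in 10 mM NaHCO3, 5 mM EDTA buffer with protease inhibitors. Binding read as displacement of [125I]-PYY.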

Experiment [2] concerns the target T1, human Y2 receptor. In words: Human Y2 Receptor G Protein Binding Assay (GBA), [35S]GTPγS. In kind it is biochemical. The note with it: EC50 of test compound/EC50 of PYY(3-36) (PYY3-36 taken as 1), hY2R/CHO membrane fraction. A digest of the protocol:
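Agonism measured as [35S]GTPγS binding, read by GF/C filtration and scintillation counting after 120 min at room temperature, using human Y2 membranes at 1 μg protein/mL in pH 7.4 Tris/MgCl2/NaCl/GDP buffer. Compound serially diluted 100 μM–1 nM; EC50 normalized to PYY(3-36) (ratio = compound/PYY).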
On the technique in general: GTPγS resists hydrolysis and so accumulates on activated G proteins.

The subject of a further experiment is male C57EL/6J mice. In words: 3-Days Continuous Subcutaneous Administration Test-1 (food intake suppressing activity). The experiment is classed as in vivo, mouse. The note with it: 0.03 mg/kg/day, subcutaneous Alzet pump, food consumption over 3 days; relative to food intake suppression rate for PYY(3-36) (1 mg/kg/day) taken as 100%. In short, it runs like this:
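Male […] mice, 12-13 weeks, received compound at 0.03 mg/kg/day by subcutaneous osmotic pump (50% DMSO vehicle), housed singly with free food access. Food consumed over 3 days measured; suppression expressed relative to PYY(3-36) (1 mg/kg/day) set as 100%.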

In the case of “Ac-[Glu23, D-Pro24, Pya(4)26, Cha27,36, Leu(Me)28, Lys30, Aib31]-PYY(23-36) (Ac-E[dP]R[4Pal][Cha][tBuAla]NK[Aib]TRQR[Cha]-NH2; SMILES CC(=O)N[C@@H](CCC(=O)O)C(=O)N1CCC[C@@H]1C(=O)N[C@@H](CCCNC(=N)N)C(=O)N[C@@H](Cc1ccncc1)C(=O)N[C@@H](CC1CCCCC1)C(=O)N[C@@H](CC(C)(C)C)C(=O)N[C@@H](CC(N)=O)C(=O)N[C@@H](CCCCN)C(=O)NC(C)(C)C(=O)N[C@H](C(=O)N[C@@H](CCCNC(=N)N)C(=O)N[C@@H](CCC(N)=O)C(=O)N[C@@H](CCCNC(=N)N)C(=O)N[C@@H](CC1CCCCC1)C(N)=O)[C@@H](C)O) [compound No. 169]”, the “RBA IC50 Ratio” value with human Y2 receptor [1] is listed as 0.48. In addition, the “GBA EC50 Ratio” value with human Y2 receptor [2] is 0.86. Also, the “food intake suppression rate (%)” value in the experiment on male C57EL/6J mice was 55%.
For “Ac-[D-Pro24, Pya(4)26, Nal(2)27, Aib28,31, Lys30, Cha36]-PYY(23-36) (Ac-S[dP]R[4Pal][2Nal][Aib]NK[Aib]TRQR[Cha]-NH2; SMILES CC(=O)N[C@@H](CO)C(=O)N1CCC[C@@H]1C(=O)N[C@@H](CCCNC(=N)N)C(=O)N[C@@H](Cc1ccncc1)C(=O)N[C@@H](Cc1ccc2ccccc2c1)C(=O)NC(C)(C)C(=O)N[C@@H](CC(N)=O)C(=O)N[C@@H](CCCCN)C(=O)NC(C)(C)C(=O)N[C@H](C(=O)N[C@@H](CCCNC(=N)N)C(=O)N[C@@H](CCC(N)=O)C(=O)N[C@@H](CCCNC(=N)N)C(=O)N[C@@H](CC1CCCCC1)C(N)=O)[C@@H](C)O) [compound No. 307]”, in that order: 7.2, 4.0 and 22%.
For “Ac-[D-Pro24, Ala(4Pip)25, Pya(4)26, Cha27,36, Aib28,31, Lys30]-PYY(23-36) [compound No. 312] (Ac-S[dP][Ala(piperidin-4-yl)][4Pal][Cha][Aib]NK[Aib]TRQR[Cha]-NH2; SMILES CC(=O)N[C@@H](CO)C(=O)N1CCC[C@@H]1C(=O)N[C@@H](CC1CCNCC1)C(=O)N[C@@H](Cc1ccncc1)C(=O)N[C@@H](CC1CCCCC1)C(=O)NC(C)(C)C(=O)N[C@@H](CC(N)=O)C(=O)N[C@@H](CCCCN)C(=O)NC(C)(C)C(=O)N[C@H](C(=O)N[C@@H](CCCNC(=N)N)C(=O)N[C@@H](CCC(N)=O)C(=O)N[C@@H](CCCNC(=N)N)C(=O)N[C@@H](CC1CCCCC1)C(N)=O)[C@@H](C)O)”, in that order: 4.3, 5.8 and 10%.
For “Ac-[D-Pro24, Nle25, Pya(4)26, Cha27,36, Aib28,31, Lys30]-PYY(23-36) (Ac-S[dP][Nle][4Pal][Cha][Aib]NK[Aib]TRQR[Cha]-NH2; SMILES CCCC[C@H](NC(=O)[C@H]1CCCN1C(=O)[C@H](CO)NC(C)=O)C(=O)N[C@@H](Cc1ccncc1)C(=O)N[C@@H](CC1CCCCC1)C(=O)NC(C)(C)C(=O)N[C@@H](CC(N)=O)C(=O)N[C@@H](CCCCN)C(=O)NC(C)(C)C(=O)N[C@H](C(=O)N[C@@H](CCCNC(=N)N)C(=O)N[C@@H](CCC(N)=O)C(=O)N[C@@H](CCCNC(=N)N)C(=O)N[C@@H](CC1CCCCC1)C(N)=O)[C@@H](C)O) [compound No. 224]”, in that order: 3.0, 2.4 and 30%.
Take “4-Imidazolecarbonyl-[D-Pro24, Nle25, Pya(4)26, Cha27,36, Aib28,31, Lys30]-PYY(23-36) (Imidazole4carbonyl-S[dP][Nle][4Pal][Cha][Aib]NK[Aib]TRQR[Cha]-NH2; SMILES CCCC[C@H](NC(=O)[C@H]1CCCN1C(=O)[C@H](CO)NC(=O)c1cnc[nH]1)C(=O)N[C@@H](Cc1ccncc1)C(=O)N[C@@H](CC1CCCCC1)C(=O)NC(C)(C)C(=O)N[C@@H](CC(N)=O)C(=O)N[C@@H](CCCCN)C(=O)NC(C)(C)C(=O)N[C@H](C(=O)N[C@@H](CCCNC(=N)N)C(=O)N[C@@H](CCC(N)=O)C(=O)N[C@@H](CCCNC(=N)N)C(=O)N[C@@H](CC1CCCCC1)C(N)=O)[C@@H](C)O) [compound No. 302]”: the “RBA IC50 Ratio” value with human Y2 receptor [1] came to 1.7. Besides, the “GBA EC50 Ratio” value with human Y2 receptor [2] amounted to 1.2. Besides, in the experiment with male C57EL/6J mice, the “food intake suppression rate (%)” value stood at 22%.
The corresponding values for “Ac-[D-Pro24, Arg(Me)25,30, Pya(4)26, Cha27,36, Aib28,31]-PYY(23-36) (Ac-S[dP][Arg(Me)][4Pal][Cha][Aib]N[Arg(Me)][Aib]TRQR[Cha]-NH2; SMILES CNC(=N)NCCC[C@H](NC(=O)[C@H](CC(N)=O)NC(=O)C(C)(C)NC(=O)[C@H](CC1CCCCC1)NC(=O)[C@H](Cc1ccncc1)NC(=O)[C@H](CCCNC(=N)NC)NC(=O)[C@H]1CCCN1C(=O)[C@H](CO)NC(C)=O)C(=O)NC(C)(C)C(=O)N[C@H](C(=O)N[C@@H](CCCNC(=N)N)C(=O)N[C@@H](CCC(N)=O)C(=O)N[C@@H](CCCNC(=N)N)C(=O)N[C@@H](CC1CCCCC1)C(N)=O)[C@@H](C)O) [compound No. 315]” are 1.5, 1.5 and 45%.
The corresponding values for “(5-carboxypentyl)carbamoyl-[D-Pro24, Pya(4)26, Cha27,36, Aib28,31, Lys30]-PYY(23-36) ({(5-carboxypentyl)carbamoyl}-S[dP]R[4Pal][Cha][Aib]NK[Aib]TRQR[Cha]-NH2; SMILES C[C@@H](O)[C@H](NC(=O)C(C)(C)NC(=O)[C@H](CCCCN)NC(=O)[C@H](CC(N)=O)NC(=O)C(C)(C)NC(=O)[C@H](CC1CCCCC1)NC(=O)[C@H](Cc1ccncc1)NC(=O)[C@H](CCCNC(=N)N)NC(=O)[C@H]1CCCN1C(=O)[C@H](CO)NC(=O)NCCCCCC(=O)O)C(=O)N[C@@H](CCCNC(=N)N)C(=O)N[C@@H](CCC(N)=O)C(=O)N[C@@H](CCCNC(=N)N)C(=O)N[C@@H](CC1CCCCC1)C(N)=O) [compound No. 294]” are 1.2, 1.5 and 45%.
For “(Carboxymethyl)carbamoyl-[D-Pro24, Pya(4)26, Cha27,36, Aib28,31, Lys30]-PYY(23-36) ({(carboxymethyl)carbamoyl}-S[dP]R[4Pal][Cha][Aib]NK[Aib]TRQR[Cha]-NH2; ends and bridges not checked) [compound No. 287]”, in that order: 1.2, 1.2 and 42%.
Regarding “Ac-[D-Pro24, Ala(4Pip)26, Cha27,36, Aib28,31, Lys30]-PYY(23-36) (Ac-S[dP]R[Ala(piperidin-4-yl)][Cha][Aib]NK[Aib]TRQR[Cha]-NH2; SMILES CC(=O)N[C@@H](CO)C(=O)N1CCC[C@@H]1C(=O)N[C@@H](CCCNC(=N)N)C(=O)N[C@@H](CC1CCNCC1)C(=O)N[C@@H](CC1CCCCC1)C(=O)NC(C)(C)C(=O)N[C@@H](CC(N)=O)C(=O)N[C@@H](CCCCN)C(=O)NC(C)(C)C(=O)N[C@H](C(=O)N[C@@H](CCCNC(=N)N)C(=O)N[C@@H](CCC(N)=O)C(=O)N[C@@H](CCCNC(=N)N)C(=O)N[C@@H](CC1CCCCC1)C(N)=O)[C@@H](C)O) [compound No. 310]”, the “RBA IC50 Ratio” value with human Y2 receptor [1] stood at 1.2. In the experiment with human Y2 receptor [2], the “GBA EC50 Ratio” value turned out to be 1.5. The “food intake suppression rate (%)” value in the experiment on male C57EL/6J mice is 12%.
As for “4-Imidazolecarbonyl-[D-Pro24, Iva25, Pya(4)26, Cha27,36, Aib28,31, Lys30]-PYY(23-36) (Imidazole4carbonyl-S[dP][Iva][4Pal][Cha][Aib]NK[Aib]TRQR[Cha]-NH2; SMILES CC[C@](C)(NC(=O)[C@H]1CCCN1C(=O)[C@H](CO)NC(=O)c1cnc[nH]1)C(=O)N[C@@H](Cc1ccncc1)C(=O)N[C@@H](CC1CCCCC1)C(=O)NC(C)(C)C(=O)N[C@@H](CC(N)=O)C(=O)N[C@@H](CCCCN)C(=O)NC(C)(C)C(=O)N[C@H](C(=O)N[C@@H](CCCNC(=N)N)C(=O)N[C@@H](CCC(N)=O)C(=O)N[C@@H](CCCNC(=N)N)C(=O)N[C@@H](CC1CCCCC1)C(N)=O)[C@@H](C)O) [compound No. 300]”, the “RBA IC50 Ratio” value in the experiment with human Y2 receptor [1] was 0.77. For the same substance, in the experiment with human Y2 receptor [2], the “GBA EC50 Ratio” value is on record as 0.91. Further, the “food intake suppression rate (%)” value in the experiment with male C57EL/6J mice is 35%.
